What was measured:
[1] = target: Megasphaera NM10-related Cas1 (Megasphaera NM10-related); test: cryo-EM structure; 50 µM Cas1, 50 µM Cas2/DEDDh and 12.5 µM prespacer or half-site DNA mixed, dialysed 2 h at room temperature, purified over Superose 6 Increase 10/300 GL; complexes bound to DNA
[2] = target: Megasphaera NM10-related Cas2 and DEDDh fusion protein (Cas2/DEDDh) (Megasphaera NM10-related); test: as above
[3] = target: T1, Cas1 (type I-E);Cas2/DEDDh (natural Cas2-DEDDh fusion) (Megasphaera NM10-related;Megasphaera …, UniProt A0AA82WPF9;A0AA82WPG7 1-316;1-289, |); test: cryo-EM structure (2.9 A); Cryo-EM sample buffer not in the material; DNA annealed in 20 mM HEPES pH 7.5, 25 mM KCl, 10 mM MgCl2; protein storage 20 mM HEPES pH 7.5, 500 mM KCl, 1 mM TCEP, 5% glycerol; details: protein: recombinant;recombinant; tags: 10xHis-MBP removed with TEV;10xHis-MBP removed with TEV; chain copies: 4;2; 23 bp duplex, 3' overhangs 15 nt on both strands (5 nt visible)
T1 sequence 1: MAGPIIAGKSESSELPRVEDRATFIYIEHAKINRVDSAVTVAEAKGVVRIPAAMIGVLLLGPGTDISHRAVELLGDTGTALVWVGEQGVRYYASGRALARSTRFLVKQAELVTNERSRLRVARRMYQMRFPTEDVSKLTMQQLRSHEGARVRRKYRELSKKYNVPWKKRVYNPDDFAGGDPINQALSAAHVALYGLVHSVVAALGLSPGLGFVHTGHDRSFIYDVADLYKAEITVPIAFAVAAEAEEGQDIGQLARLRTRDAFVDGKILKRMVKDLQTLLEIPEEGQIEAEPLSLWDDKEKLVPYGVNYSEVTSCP
T1 sequence 2: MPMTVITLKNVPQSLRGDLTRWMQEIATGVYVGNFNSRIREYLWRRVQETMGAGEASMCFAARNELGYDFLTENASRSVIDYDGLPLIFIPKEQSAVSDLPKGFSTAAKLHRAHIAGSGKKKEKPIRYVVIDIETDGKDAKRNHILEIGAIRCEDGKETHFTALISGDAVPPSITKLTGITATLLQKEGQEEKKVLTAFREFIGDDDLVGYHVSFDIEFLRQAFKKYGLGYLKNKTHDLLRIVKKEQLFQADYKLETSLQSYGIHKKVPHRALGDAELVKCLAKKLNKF

[4] = target: T1, Cas1 (type I-E);Cas2/DEDDh (natural …); test: cryo-EM structure (3.1 A); Cryo-EM sample buffer not in the material; DNA annealed in 20 mM HEPES pH 7.5, 25 mM KCl, 10 mM MgCl2; protein storage 20 mM HEPES pH 7.5, 500 mM KCl, 1 mM TCEP, 5% glycerol; details: protein: recombinant;recombinant; tags: 10xHis-MBP removed with TEV;10xHis-MBP removed with TEV; chain copies: 4;2; 23 bp duplex, 3' overhangs 15 nt on both strands before trimming

Megasphaera NM10-related Cas1 (enzyme)
stoichiometry N [1]: 2

Megasphaera NM10-related Cas2 and DEDDh fusion protein (Cas2/DEDDh) (enzyme)
stoichiometry N [2]: 2

B1: CryoEM prespacer, PAM-deficient (dsDNA)
DNA 1: ACTCATGATGCACAAGTGGTTGCGCGTGAACCCAGTTG
DNA 2: GCAACCACTTGTGCATCATGAGTGATGAAACCCAGTTG
modifications: phosphorothioate between nt 28 and 29 of each strand
binding result [3]: binds

B2: CryoEM prespacer, TT PAM-containing (dsDNA)
DNA 1: ACTCATGATGCACAAGTGGTTGCGCGTGTTCCCAGTTG
DNA 2: GCAACCACTTGTGCATCATGAGTGATGAAACCCAGTTG
modifications: phosphorothioate between nt 33 and 34 of strand 1 and between nt 28 and 29 of strand 2
binding result [4]: binds

Reference: PMC10284694, “Genome expansion by a CRISPR trimmer-integrase”
